Source: patent US20160207975A1 (published 2016)

Target: CGRP receptor (CALCRL:RAMP1) on CALCRL:RAMP1-CRE-bla Freestyle 293F cells (UniProt Q16602 23-461; O60894 27-148, limits assumed)
Assay: cell-based or functional assay

Chain of CGRP receptor (CALCRL:RAMP1) on CALCRL:RAMP1-CRE-bla Freestyle 293F cells (Q16602 23-461 limits assumed, chain 1 of 2): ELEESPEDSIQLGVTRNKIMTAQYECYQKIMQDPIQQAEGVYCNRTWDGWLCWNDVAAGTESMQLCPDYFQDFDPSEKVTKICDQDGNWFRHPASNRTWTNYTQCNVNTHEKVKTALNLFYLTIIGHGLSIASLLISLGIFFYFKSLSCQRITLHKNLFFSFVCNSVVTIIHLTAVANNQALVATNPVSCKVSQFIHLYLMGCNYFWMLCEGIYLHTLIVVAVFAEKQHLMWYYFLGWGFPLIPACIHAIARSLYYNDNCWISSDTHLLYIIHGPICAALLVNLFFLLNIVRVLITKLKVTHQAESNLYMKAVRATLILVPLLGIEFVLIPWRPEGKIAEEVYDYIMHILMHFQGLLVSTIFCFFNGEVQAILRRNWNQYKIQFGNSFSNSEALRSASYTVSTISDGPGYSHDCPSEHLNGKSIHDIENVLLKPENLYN
Chain of CGRP receptor (CALCRL:RAMP1) on CALCRL:RAMP1-CRE-bla Freestyle 293F cells (O60894 27-148 limits assumed, chain 2 of 2): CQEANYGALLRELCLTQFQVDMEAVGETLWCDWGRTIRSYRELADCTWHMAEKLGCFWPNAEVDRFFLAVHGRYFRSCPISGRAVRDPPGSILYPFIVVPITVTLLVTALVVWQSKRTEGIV

- percent activation of the CGRP receptor (CALCRL:RAMP1-CRE-bla Freestyle 293F agonist screen), EC50: ~105 nM
Binder: H-ACDTATCVLGRLSQELHRLQTYPRTNVGSKAF-NH2 (ends and bridges not checked) [ACX017 (SEQ ID NO:1)]
